According to patent publication US20230212306A1 (Daiichi Sankyo, published 2023):

Biological target: T1, mouse TLR7-Flag, expressed in HEK293 cells (mouse, UniProt P58681 27-1050)
T1 construct: not shown: Flag tag
T1 sequence: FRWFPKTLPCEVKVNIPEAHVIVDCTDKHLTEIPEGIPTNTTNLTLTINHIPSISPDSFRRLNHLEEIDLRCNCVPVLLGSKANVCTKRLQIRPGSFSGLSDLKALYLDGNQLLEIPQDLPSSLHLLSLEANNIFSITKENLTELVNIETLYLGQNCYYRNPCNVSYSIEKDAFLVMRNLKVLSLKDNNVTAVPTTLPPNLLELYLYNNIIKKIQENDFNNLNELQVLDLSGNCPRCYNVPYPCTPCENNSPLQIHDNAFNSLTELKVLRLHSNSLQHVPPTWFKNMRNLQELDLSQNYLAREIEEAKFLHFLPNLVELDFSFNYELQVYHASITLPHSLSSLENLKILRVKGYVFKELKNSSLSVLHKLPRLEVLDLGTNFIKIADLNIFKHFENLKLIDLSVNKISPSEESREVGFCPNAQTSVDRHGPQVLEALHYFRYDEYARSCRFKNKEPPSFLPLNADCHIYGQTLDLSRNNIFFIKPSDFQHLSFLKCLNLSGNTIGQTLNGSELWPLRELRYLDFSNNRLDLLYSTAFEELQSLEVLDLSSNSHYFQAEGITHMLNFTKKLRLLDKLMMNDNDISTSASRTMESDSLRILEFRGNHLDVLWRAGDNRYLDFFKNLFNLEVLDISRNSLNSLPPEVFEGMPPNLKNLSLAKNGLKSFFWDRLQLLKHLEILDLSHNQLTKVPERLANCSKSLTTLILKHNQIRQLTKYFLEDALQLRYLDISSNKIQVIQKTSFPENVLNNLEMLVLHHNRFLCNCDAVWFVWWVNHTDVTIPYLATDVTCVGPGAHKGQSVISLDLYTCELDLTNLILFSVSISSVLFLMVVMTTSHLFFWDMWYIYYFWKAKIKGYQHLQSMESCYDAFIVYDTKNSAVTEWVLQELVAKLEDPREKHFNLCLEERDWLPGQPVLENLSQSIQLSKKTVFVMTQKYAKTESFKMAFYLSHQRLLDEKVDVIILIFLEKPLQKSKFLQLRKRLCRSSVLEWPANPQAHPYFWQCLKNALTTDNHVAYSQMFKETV
Experiment: flow cytometry on fixed and permeabilised HEK293 cells expressing mouse TLR7-Flag
Source text: The HEK293 cells expressing human TLR7 (variant 1)-Flag prepared in 8)-1, the HEK293 cells expressing human TLR7 (variant 2)-Flag prepared in 8)-2, the HEK293 cells expressing monkey TLR7-Flag prepared in 8)-3, the HEK293 cells expressing mouse TLR7-Flag prepared in 8)-4, and the HEK293 cells expressing rat TLR7-Flag prepared in 8)-5 were immobilized/subjected to membrane permeation with a Fixation and Permeabilization Solution (Becton, Dickinson and Company) and thereafter stained using huAT01_H3L2_IgG1LALA, which is one of the humanized anti-human TLR7 antibodies, and ALEXA FLUOR® 647 AffiniPure Goat anti-human IgG+IgM (H+L) (Jackson ImmunoResearch Inc.), which is the secondary antibody.
The binding of the humanized anti-human TLR7 antibody to human TLR7 was detected based on flow cytometry (Miltenyi Biotec K.K.), and the data was analyzed using software (Flowjo) which analyzes the data of flow cytometry.

binding result: no binding
B1: huAT01_H3L2_IgG1LALA antibody (antibody, V domains shown)
VH: QVQLVQSGAEVKKPGASVKVSCKASGYTFTNNWLHWVRQAPGQGLEWMGDIYPSNGRTNYAQKFQGRVTLTVDKSTSTAYMELSSLRSEDTAVYFCARERGYFDYWGQGTLVTVSS
VL: DIQMTQSPSSLSASVGDRVTITCKASQDINKYIAWYQQKPGKAPKLLIHYTSTLQPGIPSRFSGSGSGRDYTLTISSLQPEDFATYYCLQYDYLLTFGQGTKVEIKR
notes: Humanized AT01; heavy huAT01_H3_IgG1LALA, light huAT01_L2
